Values quoted from earlier work, collected in PMC3970081.

Biological target: KIF5B tail (Rattus norvegicus) (UniProt Q2PQA9)
Experiment: SPR

Chain of Kv3.1 T1 domain (P25122 1-129): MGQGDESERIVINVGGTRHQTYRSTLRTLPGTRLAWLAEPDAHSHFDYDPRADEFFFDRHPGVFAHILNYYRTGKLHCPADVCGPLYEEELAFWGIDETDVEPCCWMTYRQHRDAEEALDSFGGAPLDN
Chain of KIF5B tail (Rattus norvegicus) (Q2PQA9 758-963): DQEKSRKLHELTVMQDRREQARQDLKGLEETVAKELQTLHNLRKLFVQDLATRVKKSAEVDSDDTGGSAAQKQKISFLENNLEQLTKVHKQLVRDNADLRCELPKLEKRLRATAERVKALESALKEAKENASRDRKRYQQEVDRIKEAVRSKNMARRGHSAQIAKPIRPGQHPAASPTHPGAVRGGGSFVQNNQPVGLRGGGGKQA

Kd: 60 nM
Substance: Kv3.1 T1 domain (from UniProt P25122)
